From the supplement of paper PMC9112550, “Optimization of the antimicrobial peptide Bac7 by deep mutational scanning” (BMC Biology, 2022) come the findings set out here.
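Note: peptides expressed intracellularly from a pBAD plasmid library in pooled LB shake-flask culture, induced with 0.3% L-arabinose, DNA abundance read by NGS, three biological replicates, DESeq2 with apeglm shrinkage.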

The subject of this data set is Escherichia coli TOP10. The data set is described as follows: shrunken log2 fold change of peptide-encoding DNA abundance (4.5 h post-induction vs induction); higher = less antimicrobial activity (less host growth inhibition). Conditions: time post-induction: 4.5 h; library: site-saturation at positions 5, 18, 19, 20.
With RRIRWRPPRLPRPRPRPVRGPRP, the “shrunken log2 fold change” value came out at 0.538.

Regarding RRIRWRPPRLPRPRPRPMHLPRP, the “shrunken log2 fold change” value was -0.317.

On to RRIRQRPPRLPRPRPRPQHLPRP, for which the “shrunken log2 fold change” value was -0.0402.

On to RRIRSRPPRLPRPRPRPIEGPRP, for which the “shrunken log2 fold change” value is -0.0107.

Consider RRIRFRPPRLPRPRPRPVTAPRP, for which the “shrunken log2 fold change” value was -0.0836.

Regarding RRIRHRPPRLPRPRPRPGTIPRP, the “shrunken log2 fold change” value was -0.00536.

Take RRIRPRPPRLPRPRPRPEAAPRP: the “shrunken log2 fold change” value was determined as 1.13.

For the sequence RRIRFRPPRLPRPRPRPGEVPRP, the “shrunken log2 fold change” value was found to be 0.185.

For RRIRQRPPRLPRPRPRPELQPRP, the “shrunken log2 fold change” value was -0.0257.

Take RRIRNRPPRLPRPRPRPNWSPRP: the “shrunken log2 fold change” value was -0.106.

Consider RRIRSRPPRLPRPRPRPDEAPRP, for which the “shrunken log2 fold change” value was -0.104.

With RRIRARPPRLPRPRPRPVQIPRP, the “shrunken log2 fold change” value is -0.0414.

For RRIRERPPRLPRPRPRPDPWPRP, the “shrunken log2 fold change” value was -0.12.

As for RRIRWRPPRLPRPRPRPSRIPRP, the “shrunken log2 fold change” value was -0.338.

As for RRIRDRPPRLPRPRPRPLLFPRP, the “shrunken log2 fold change” value stood at 0.445.

Turning to RRIRTRPPRLPRPRPRPENTPRP, the “shrunken log2 fold change” value is -0.0831.

Regarding RRIRPRPPRLPRPRPRPSVYPRP, the “shrunken log2 fold change” value was -0.361.

For the sequence RRIRRRPPRLPRPRPRPRVLPRP, the “shrunken log2 fold change” value is 0.349.

RRIRDRPPRLPRPRPRPKGWPRP: the “shrunken log2 fold change” value was 0.589.

On to RRIRCRPPRLPRPRPRPEKWPRP, for which the “shrunken log2 fold change” value is -0.0207.

For RRIRRRPPRLPRPRPRPWIPPRP, the “shrunken log2 fold change” value was -0.129.

For RRIRQRPPRLPRPRPRPTCEPRP, the “shrunken log2 fold change” value stood at 0.0552.

In the case of RRIRSRPPRLPRPRPRPWARPRP, the “shrunken log2 fold change” value was found to be 0.0355.

In the case of RRIRDRPPRLPRPRPRPKNPPRP, the “shrunken log2 fold change” value is -0.128.

For RRIRKRPPRLPRPRPRPAGTPRP, the “shrunken log2 fold change” value came to 0.992.

Take RRIRFRPPRLPRPRPRPMCFPRP: the “shrunken log2 fold change” value is -0.256.

Turning to RRIRTRPPRLPRPRPRPSIKPRP, the “shrunken log2 fold change” value was -0.556.

With RRIRFRPPRLPRPRPRPHVDPRP, the “shrunken log2 fold change” value was -0.00919.

For RRIRWRPPRLPRPRPRPYSGPRP, the “shrunken log2 fold change” value was -0.105.

On to RRIRPRPPRLPRPRPRPFMNPRP, for which the “shrunken log2 fold change” value is -0.198.

As to RRIRCRPPRLPRPRPRPMVYPRP, the “shrunken log2 fold change” value was -0.187.

In the case of RRIRNRPPRLPRPRPRPVSAPRP, the “shrunken log2 fold change” value is 0.219.

Turning to RRIRVRPPRLPRPRPRPRFAPRP, the “shrunken log2 fold change” value came out at 0.527.

For the sequence RRIRSRPPRLPRPRPRPQYFPRP, the “shrunken log2 fold change” value is -0.18.

Regarding RRIRSRPPRLPRPRPRPYPKPRP, the “shrunken log2 fold change” value was -0.119.

For the sequence RRIRYRPPRLPRPRPRPNYDPRP, the “shrunken log2 fold change” value is -0.746.

Turning to RRIRVRPPRLPRPRPRPPAEPRP, the “shrunken log2 fold change” value worked out at 0.253.

Consider RRIRSRPPRLPRPRPRPYAYPRP, for which the “shrunken log2 fold change” value is -0.315.

As to RRIRKRPPRLPRPRPRPYTMPRP, the “shrunken log2 fold change” value is -0.53.

Take RRIRIRPPRLPRPRPRPRQTPRP: the “shrunken log2 fold change” value was -0.0527.

Take RRIRFRPPRLPRPRPRPYWLPRP: the “shrunken log2 fold change” value is -0.234.

Regarding RRIRLRPPRLPRPRPRPDHHPRP, the “shrunken log2 fold change” value is -0.769.

Take RRIRQRPPRLPRPRPRPFHWPRP: the “shrunken log2 fold change” value was determined as 0.0728.

For RRIRYRPPRLPRPRPRPITTPRP, the “shrunken log2 fold change” value was determined as 0.0271.

RRIRQRPPRLPRPRPRPTRYPRP: the “shrunken log2 fold change” value is 0.511.

For RRIRCRPPRLPRPRPRPFKGPRP, the “shrunken log2 fold change” value was found to be 0.0401.

Turning to RRIRDRPPRLPRPRPRPDLYPRP, the “shrunken log2 fold change” value is 0.309.

For the sequence RRIRPRPPRLPRPRPRPRTEPRP, the “shrunken log2 fold change” value stood at 0.306.

With RRIRMRPPRLPRPRPRPVNRPRP, the “shrunken log2 fold change” value was 0.105.

With RRIRVRPPRLPRPRPRPHDSPRP, the “shrunken log2 fold change” value was 0.0311.

As for RRIRWRPPRLPRPRPRPPETPRP, the “shrunken log2 fold change” value stood at 0.166.

Consider RRIRFRPPRLPRPRPRPCGNPRP, for which the “shrunken log2 fold change” value was -0.0344.

For RRIRKRPPRLPRPRPRPRYKPRP, the “shrunken log2 fold change” value was determined as 0.15.

With RRIRKRPPRLPRPRPRPYAVPRP, the “shrunken log2 fold change” value came to 0.916.

For RRIRWRPPRLPRPRPRPRLDPRP, the “shrunken log2 fold change” value amounted to 0.459.

On to RRIRARPPRLPRPRPRPLYSPRP, for which the “shrunken log2 fold change” value was -0.122.

In the case of RRIRKRPPRLPRPRPRPCHTPRP, the “shrunken log2 fold change” value turned out to be 0.0319.

With RRIRERPPRLPRPRPRPIFMPRP, the “shrunken log2 fold change” value was -0.1.

For RRIRTRPPRLPRPRPRPTSDPRP, the “shrunken log2 fold change” value was determined as 0.0524.

RRIRKRPPRLPRPRPRPLYCPRP: the “shrunken log2 fold change” value was -0.237.

Regarding RRIRFRPPRLPRPRPRPGVTPRP, the “shrunken log2 fold change” value turned out to be 0.0815.

Consider RRIRARPPRLPRPRPRPLVLPRP, for which the “shrunken log2 fold change” value came to 0.157.

For RRIRQRPPRLPRPRPRPILKPRP, the “shrunken log2 fold change” value amounted to 0.14.

RRIRHRPPRLPRPRPRPWHQPRP: the “shrunken log2 fold change” value is -0.0658.

Take RRIRTRPPRLPRPRPRPKMFPRP: the “shrunken log2 fold change” value is -0.0043.

In the case of RRIRMRPPRLPRPRPRPYHIPRP, the “shrunken log2 fold change” value is -0.69.

As for RRIRWRPPRLPRPRPRPNCSPRP, the “shrunken log2 fold change” value was -0.162.

In the case of RRIRIRPPRLPRPRPRPTLNPRP, the “shrunken log2 fold change” value was -0.181.

In the case of RRIRARPPRLPRPRPRPEKMPRP, the “shrunken log2 fold change” value turned out to be 0.706.

Take RRIRPRPPRLPRPRPRPQNQPRP: the “shrunken log2 fold change” value is -0.407.

Consider RRIRTRPPRLPRPRPRPITDPRP, for which the “shrunken log2 fold change” value is 0.177.

In the case of RRIRHRPPRLPRPRPRPARAPRP, the “shrunken log2 fold change” value is 0.345.

Consider RRIRSRPPRLPRPRPRPETKPRP, for which the “shrunken log2 fold change” value amounted to 0.187.

For RRIRSRPPRLPRPRPRPKSIPRP, the “shrunken log2 fold change” value is -0.228.

Consider RRIRPRPPRLPRPRPRPWQAPRP, for which the “shrunken log2 fold change” value was -0.0268.

Take RRIRGRPPRLPRPRPRPCWIPRP: the “shrunken log2 fold change” value was -0.0658.

With RRIRQRPPRLPRPRPRPLFTPRP, the “shrunken log2 fold change” value was -0.426.

For RRIRQRPPRLPRPRPRPRFYPRP, the “shrunken log2 fold change” value was -0.206.

Turning to RRIRPRPPRLPRPRPRPNDYPRP, the “shrunken log2 fold change” value was -0.307.

For RRIRFRPPRLPRPRPRPVQGPRP, the “shrunken log2 fold change” value is -0.169.

Turning to RRIRNRPPRLPRPRPRPLWFPRP, the “shrunken log2 fold change” value is 0.0185.

For the sequence RRIRWRPPRLPRPRPRPGYCPRP, the “shrunken log2 fold change” value is -0.407.

Consider RRIRYRPPRLPRPRPRPKMSPRP, for which the “shrunken log2 fold change” value is -0.562.

For RRIRFRPPRLPRPRPRPHGLPRP, the “shrunken log2 fold change” value came out at 0.0196.

For the sequence RRIRQRPPRLPRPRPRPEKNPRP, the “shrunken log2 fold change” value came to 0.172.

As to RRIRHRPPRLPRPRPRPYNDPRP, the “shrunken log2 fold change” value was -0.0648.

On to RRIRARPPRLPRPRPRPHSSPRP, for which the “shrunken log2 fold change” value was -0.137.

Take RRIRPRPPRLPRPRPRPPVHPRP: the “shrunken log2 fold change” value was -0.0329.

On to RRIRERPPRLPRPRPRPKNRPRP, for which the “shrunken log2 fold change” value was found to be 0.103.

Regarding RRIRIRPPRLPRPRPRPMGTPRP, the “shrunken log2 fold change” value was -0.0384.

Take RRIRFRPPRLPRPRPRPIHGPRP: the “shrunken log2 fold change” value is -0.0163.

On to RRIRWRPPRLPRPRPRPRVQPRP, for which the “shrunken log2 fold change” value was 0.927.

On to RRIRRRPPRLPRPRPRPVGFPRP, for which the “shrunken log2 fold change” value worked out at 0.362.

With RRIRRRPPRLPRPRPRPRWRPRP, the “shrunken log2 fold change” value was determined as 0.832.

On to RRIRTRPPRLPRPRPRPQSTPRP, for which the “shrunken log2 fold change” value was -0.236.

For RRIRSRPPRLPRPRPRPNIHPRP, the “shrunken log2 fold change” value worked out at 0.829.

Regarding RRIRGRPPRLPRPRPRPDDYPRP, the “shrunken log2 fold change” value came to 0.662.

On to RRIRVRPPRLPRPRPRPCCYPRP, for which the “shrunken log2 fold change” value is -0.272.

As to RRIRMRPPRLPRPRPRPEMCPRP, the “shrunken log2 fold change” value came to 3.01.

Consider RRIRSRPPRLPRPRPRPVIPPRP, for which the “shrunken log2 fold change” value was -0.156.

Take RRIRSRPPRLPRPRPRPFRPPRP: the “shrunken log2 fold change” value was -0.249.

On to RRIRERPPRLPRPRPRPSRHPRP, for which the “shrunken log2 fold change” value is -0.439.

Turning to RRIRVRPPRLPRPRPRPRLGPRP, the “shrunken log2 fold change” value came out at 0.223.

As for RRIRQRPPRLPRPRPRPFETPRP, the “shrunken log2 fold change” value was -0.232.

As for RRIRNRPPRLPRPRPRPNEQPRP, the “shrunken log2 fold change” value was -0.0324.

Regarding RRIRQRPPRLPRPRPRPMMAPRP, the “shrunken log2 fold change” value stood at 0.216.

Consider RRIRQRPPRLPRPRPRPTFGPRP, for which the “shrunken log2 fold change” value stood at 0.343.

Turning to RRIRLRPPRLPRPRPRPPIVPRP, the “shrunken log2 fold change” value was -0.531.

RRIRDRPPRLPRPRPRPFILPRP: the “shrunken log2 fold change” value is -0.293.

In the case of RRIRDRPPRLPRPRPRPIFEPRP, the “shrunken log2 fold change” value was 0.419.

Take RRIRMRPPRLPRPRPRPELTPRP: the “shrunken log2 fold change” value is 3.52.

Turning to RRIRDRPPRLPRPRPRPKWKPRP, the “shrunken log2 fold change” value is -0.00871.

For RRIRRRPPRLPRPRPRPPEDPRP, the “shrunken log2 fold change” value came out at 1.34.

Regarding RRIRYRPPRLPRPRPRPVFFPRP, the “shrunken log2 fold change” value was -0.367.

For RRIRFRPPRLPRPRPRPENQPRP, the “shrunken log2 fold change” value was -0.00277.

With RRIRVRPPRLPRPRPRPIMKPRP, the “shrunken log2 fold change” value is -0.473.

With RRIRSRPPRLPRPRPRPHDVPRP, the “shrunken log2 fold change” value is -0.0229.

As for RRIRCRPPRLPRPRPRPIYHPRP, the “shrunken log2 fold change” value is -0.905.

As for RRIRGRPPRLPRPRPRPIEMPRP, the “shrunken log2 fold change” value turned out to be 0.0736.

For the sequence RRIRERPPRLPRPRPRPWGWPRP, the “shrunken log2 fold change” value came to 0.173.

Consider RRIRIRPPRLPRPRPRPDYFPRP, for which the “shrunken log2 fold change” value was 0.197.

For RRIRLRPPRLPRPRPRPNDWPRP, the “shrunken log2 fold change” value is -0.261.

With RRIRHRPPRLPRPRPRPLNLPRP, the “shrunken log2 fold change” value is 0.00301.

For RRIRFRPPRLPRPRPRPFNLPRP, the “shrunken log2 fold change” value was -0.66.

Take RRIRNRPPRLPRPRPRPHDHPRP: the “shrunken log2 fold change” value amounted to 0.171.
